Experimental data from patent publication US8933202B2, “AXL antibodies” (U3 Pharma GmbH, priority 2007, dated 2015).

What was measured:
p42/p44 MAP-Kinase = p42/p44 MAP-Kinase phosphorylation ELISA, rat versus chimeric antibody; type: cell-based, human; details: 50 ng/ml to 10 μg/ml antibody, 400 ng/ml Gas6; CaSki
Experimental: To additionally verify whether the rat anti-Axl antibodies of the invention and the corresponding chimeric anti-Axl antibodies of the invention were also able to inhibit Gash-induced activation of p42/p44 MAP-Kinase in CaSki cervical cancer cells to similar extent, ELISA experiments were performed. Here, Gas6-induced p42/p44 MAP-Kinase activation was detected by increased protein (Thr202/Tyr204) phosphorylation. In brief, on the first day, 2×10^4 cells per well were seeded in flat-bottom 96 well plates. The next day, normal growth medium was replaced by serum-free medium to starve cells for 24 h. Thereafter, cells were pre-incubated with 50 ng/ml, 100 ng/ml, 300 ng/ml, 750 ng/ml, 1 μg/ml, and 10 μg/ml of rat anti-Axl antibody 11B7 or chimeric anti-Axl antibody ch11B7 for 1 h at 37° C. and then treated with or without 400 ng/ml Gas6 (R&D Systems) for 10 min at 37° C. Medium was flicked out and cells were fixed with 4% formaldehyde in PBS (pH 7.5) for 30 min at room temperature. Formaldehyde solution was removed and cells were washed twice with wash buffer (PBS, 0.1% Tween 20). Cells were quenched with 1% H2O2, 0.1% NaN3 in wash buffer and incubated for 20 min at room temperature. […] Tetramethylbenzidine (TMB, Calbiochem) was added and monitored at 620 nm.

AXL = target: T1, AXL (Homo sapiens, UniProt P30530); assay: AXL receptor tyrosine phosphorylation ELISA; type: cell-based; design: expressed in transfected cells; host or cells: NIH3T3-AXL cl.7 (pLXSN-hAXL) and NCI-H292 lung cancer cells (endogenous AXL); details: 10 μg/ml antibody, 400 ng/ml Gas6; NIH3T3-AXL cl.7 fibroblasts and NCI-H292 lung cancer cells
T1 sequence (P30530 26-894): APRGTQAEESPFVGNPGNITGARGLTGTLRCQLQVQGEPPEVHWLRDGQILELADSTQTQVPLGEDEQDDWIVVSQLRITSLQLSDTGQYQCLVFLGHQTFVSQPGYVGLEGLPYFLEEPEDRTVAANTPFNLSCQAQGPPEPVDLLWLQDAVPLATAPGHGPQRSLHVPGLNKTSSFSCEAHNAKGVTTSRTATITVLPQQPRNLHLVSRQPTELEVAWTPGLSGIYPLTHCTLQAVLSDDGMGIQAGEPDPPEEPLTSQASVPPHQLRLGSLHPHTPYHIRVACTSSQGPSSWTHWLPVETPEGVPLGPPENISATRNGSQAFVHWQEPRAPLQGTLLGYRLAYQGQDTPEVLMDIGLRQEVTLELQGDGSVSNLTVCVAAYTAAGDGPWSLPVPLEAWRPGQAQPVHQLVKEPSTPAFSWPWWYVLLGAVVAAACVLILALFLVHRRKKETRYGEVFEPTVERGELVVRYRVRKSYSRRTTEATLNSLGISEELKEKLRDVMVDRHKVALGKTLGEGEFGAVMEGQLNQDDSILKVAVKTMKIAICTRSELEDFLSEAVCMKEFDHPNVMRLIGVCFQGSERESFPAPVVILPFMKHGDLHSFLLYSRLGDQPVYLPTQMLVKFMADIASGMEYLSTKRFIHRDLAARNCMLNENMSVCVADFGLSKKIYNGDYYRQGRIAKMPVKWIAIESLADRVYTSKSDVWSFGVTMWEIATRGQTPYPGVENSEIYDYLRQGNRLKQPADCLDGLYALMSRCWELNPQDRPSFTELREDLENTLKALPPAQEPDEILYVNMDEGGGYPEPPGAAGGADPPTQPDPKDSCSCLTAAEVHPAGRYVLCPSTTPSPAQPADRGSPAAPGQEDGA
Experimental: ELISA experiments were performed in order to investigate whether the rat anti-AXL antibodies of the invention are able to block ligand Gash-mediated activation of AXL. Gas6-mediated AXL activation was detected by increased receptor tyrosine phosphorylation. In brief, on day 1, 3×10^4 cells per well were seeded in normal growth medium in flat-bottom 96 well plates. The next day, growth medium was replaced by serum-free medium to starve cells over night for 24 h. Also over night, black Maxi-Sorp 96 well plates (Nunc) were coated with mouse anti-phospho-tyrosine antibody 4G10 at 2 μg/ml PBS and 4° C. On day 3, the 4G10 antibody solution was removed and Maxi-Sorp wells were blocked with PBS, 0.5% BSA for at lest 4 h at room temperature. […] Medium was then flicked out and cells were lysed in lysis buffer (50 mM HEPES, pH 7.5, 150 mM NaCl, 1 mM EDTA, 10% glycerine, and 1% Triton X-100) supplemented with phosphatase and protease inhibitors (10 mM Na4P2O7, 1 mM phenylmethylsulfonyl fluoride, 1 mM orthovanadate, 1 mM NaF, and 0.5% aprotinin) for 30 min on ice. […] Using a Victor plate reader (Perkin Elmer), the fluorescence of each well was collected at an excitation wavelength of 430 nm and an emission wavelength of 580 nm.

B1: 11B7: antagonistic rat anti-AXL monoclonal antibody, rat IgG1 (antibody, V domains shown)
VL: DIQMTQAPSSLPASLGDRVTITCRASQDIGNYLRWFQQKPGKSPRLMISGATNLAAGVPSRFSGSRSGSDYSLTISSLESEDMADYYCLQSKESPWTFGGGTKLELK
VH: EVQLQESGPGLVKPSQSLSLTCSVTGYSITSNYWGWIRKFPGDKMEWMGYITYSGSTSYNPSLKSRISITRDTSKNQFFLQLNSVTSEDTATYYCAITTFYYWGQGVMVTVSS
Gas6-induced p42/p44 MAP-Kinase activation, concentration-dependent (p42/p44 MAP-Kinase): able to block Gas6-induced activation of p42/p44 MAP-Kinase in CaSki cervical cancer cells to similar extent
ligand-mediated AXL activation (phosphorylation) (AXL): able to block or reduce ligand-mediated AXL activation
